The values below come from the DeepSol protein solubility set.

The nature of the data set: soluble on expression in E. coli; label from the status in PepcDB or PDB records.
For the sequence “GPGSMFGRSALCLAKRFRYNTKYPSLVSYNKLPWEILNHETPEFHMHVAPHYEQIMTLAASTHVPHIVGKKHLEMPPEHRLRLLPGMFYMLDGDSIPEGFTANRVLDPTALQYYGRLESLVAPVQAVRMLISDDLRIVCNSVTLQGPLQLPVASYASLASLEVVTNKASASFTLFHFVRPNRPPSELQLEKYYIHAPRAMALAEFNSTSNTSWEPKLQAPKRSKRVTPLPAYRPPQSYLMGLAERLAVVPGSSFGRRSLMWGHWF”, the “soluble on expression in E. coli” value is “not soluble”.

For the sequence “MAHHHHHHMNKTNEVDDWTEWLDDDDEKREDEFHIDSTKDEAIKKKILQNNLDDIADFLDIGDNKKKKVEETENKVKPKVTEKIITLESTPLNSIKDCETLGEILAGRIRKCKAKSVALERFISIIITASESKLEDKDLLTVSRKLQEMVSQREKKKRYAQINKKKPNEVKNSIKNYEDEVDMIYGDLSYDEDDYEEEVVDEYLENF”, the “soluble on expression in E. coli” value is “soluble”.

As to “MDGIAEPVIIKDDASRFVFINDAACDLLGKDRNQLIGRTDHDILPGEQADRIVSLDRIVLSTSEGHELEEQITTPDGTQRTLLTKKRCVSIPAGSTQEKFVVVTIVDIT”, the “soluble on expression in E. coli” value is recorded as “not soluble”.

Consider “GPGSMPSAPTSVTAVVQLPPLIDCHVHFREPGLEHKADIASESTAAYYGGITVACDMPNTSPPTQSVAALADKVARAKATAHAHCQLFFFFGATAEAHLQELEELWTNPAHAELKTHCCGLKLYLDNSTGNMKSSLSVVEKSFEMCGRLQIVLVAHCEQSEINDAAAAQHPYDGPASHSLRRPADSEAASVQSAIALARQCRTPLHLAHVSTAQSLDLIREARAADPTLQLTCEVTPHHLFLTTSDYSCCGARVKVNPPVRPPQHHEALWAGLLDGTVDCVGTDHAPHTIAEKDHCDAAAQPPSGMPAIEVVVPLLLTVVAGQWPHPTAAKPSALAAAEHQGRTLTLDDVVRVLHTNPNRIFNLRQPDAPHRSFDLACEWTVRGEELHSKCQWTPYEGWRLRGRVLANE”, for which the “soluble on expression in E. coli” value is listed as “soluble”.

Consider “MNRIAFDAKRITSNATGLGNYSRFVVEALAAFHSEHRYYLCSPGKGNPALYSALQQREGIEWLLPEGRRMGGTFWRNFGVVPRLQKEGIDLFHGLSHELPLGIYGKGIATVVTIHDLIFIRYPHYYKPVDRLLYRLKYGHAARCADRVIAISEQTKRDVMEFFHVPADRIDVVYQGCSPAFGQATEEDESRARERYALPERYLLYVGSIETRKNLRLAVEALAHCRDRHIRLVAVGKRTPYCAEVQQCAERSGVADRLVMLHDVPFAFLPGIYRGAEVFVYPSRFEGFGIPIVEALASGVPVVAATGSCLEEAGGPSSLYTDPDDAEMMASMLDSILSDSSLREKMIADGRTYIERFSPEAVARSLMHVYDKVL”, for which the “soluble on expression in E. coli” value was “not soluble”.

As for “MARLEVPRPATFVTLTGFMGVGKSRIGRELARALMLHFIDLDRYIERRTGISIPDIFRHLGEEAFRRMEKEAVRELVGKDYLVLSLGGGTFMDPESQKALLGRGPVVALWASPETILERAMRKPGERPLLQVENPLERIRTLLEARAPVYRKAHIHVSTDGRRVEEVVEEIVEKLWRHAEARGA”, the “soluble on expression in E. coli” value is “soluble”.

Turning to “MSDTPAQTPEPSKKTPEPSGVDLARVALRAAKEQARARGDAAQQKRQARRGGLRSGARADGRDPMALGAAINRLLTERGWETPAAVGGVMGRWPQIVGEDLAKHCVPQRYDEDERVLTVQCDSTAWATQLRLLAPQLVARLNEDLGHGTVRLLKVQGPGGPARRYGPLRAPGSTGPGDTYG”, the “soluble on expression in E. coli” value is reported as “not soluble”.

On to “MKIFTVCQSGLGTSFMVQMNIQQILEEVGVDTDNFQIDHTDVGSASGDMADYFFVEKTLQDALGSIPAEKIIPLNAIIDYDETKEKVLKVLDDNGIAHQ”, for which the “soluble on expression in E. coli” value is reported as “not soluble”.

As for “MNYGFVKVAAAVPRVKVADCKFNSERLEGLITIAEGKGVQILTFPEMCITGYTCGDLFAQQLLLEQAEMALIQILNSTRQLDIISILGMPVVVNSTVINAAVVIQKGKILGVVPKTYLPNYKEFYEQRWFTSALQVSENSVRLCGQIVPMGNNLLFETAETTFGIEICEDLWATVPPSSSLALQGAEIIFNLSADDEGIGKHNYLCSLISQQSARCISGYVFSSSGFGESTTDVVFAGNGLIYENGYLLARSERFCMEEQLIINEIDVECIRAERRVNTTFAANKANCPGLEHHHHHH”, the “soluble on expression in E. coli” value is given as “not soluble”.

For the sequence “MSLKLDSKGPVLFKQKRVGINKTHFHILKFRTMRIDTPKDTPTHLLKNPDQYITKMGKFLRKTSLDELPQIWNIFVGHMSIIGPRPALWNQYDLIVERDKYGANDVPPGLTGWAQINGRDELPIEVKAKLDGEYVQNIGFWMDVKCFVGTIWSVLRSDGVVEGGTGSAKKEIASTKRREGHHHHHH”, the “soluble on expression in E. coli” value was “soluble”.

For the sequence “SNAMITKAIYPGTFDPITNGHLDLVTRASAMFSHVILAIADSSSKKPMFTLDERVALAKKVTAPLKNVEVLGFSELMAEFAKKHNANILVRGLRSVSDFEYEWQLANMNRHLMPKLESVFLIPSEKWSFISSSLVKEVARHGGDITPFLPKPVTKALLAKLA”, the “soluble on expression in E. coli” value was “soluble”.

Turning to “MEAHNVEISTRLTPEMKNQGTIELLYKALQQGDTSTVTKVVASDVEWWFHGPHDCQHMMRLLTGEPPRQVSFRFEPSSVQVVVPGHDCVIAEGWEGSRVYWVHVWKLKDGVVTELREYFNTWLTVTDYSLGAVGWDMGRCTVWESVPRDLARGSLPSLLLAI”, the “soluble on expression in E. coli” value is listed as “soluble”.

With “MIPTISDVSTVEEWRSVAKDIVQRDGDVNWRATIVDWPGLGYSARPKMDYDTDVMEKFVVDFMNSPESPMSQSGNDDLVIIGGGHAATLALRATQRGLLKPSAIAAVAPTWAGPLPIVFGRDSSMVSRYGMLRGTLRAPGVGWMMYNMLVSNEKSIESQYKSHVYADQTNVTDAIIQSRYELTKQKGSRYVPAAFLTGLLDPVSSREEFLQLFADLEGKLPVMVMSTKGAPKRSKAEMEALRGAKGVSKFVEVEGALLPQEEYPSLVAQELYNFLQETFAKC”, the “soluble on expression in E. coli” value is listed as “not soluble”.

With “MKEIDWANLSFGYMKTDYNVRINFRNGAWGELEVSSDEHLNLHMAATCLHYGQEAFEGLKAFRGKDGKVRIFRLEENAARLQSTCQGILMAELPTERFKEAILKVVKLNERFIPPYETGASLYIRPLLIGTSAQVGVHPAEEYMFVVFVTPVGPYFKGGFSTNPYVIIREFDRAAPHGTGIYKVGGNYAASLRANKKAHDLGYSCEFYLDAKEKKYIDECGAANFFGIKDNTYITPKSSSILPSITNKSLMQLAEDMGIKVERRPIPEEELETFEEAGACGTAAVISPIQRIDDLENGKSYVISKDGKPGPICTKLYNKLRGIQYGDEPDTHGWVTIVE”, the “soluble on expression in E. coli” value is recorded as “not soluble”.

On to “MKGFQFKVIQEKLQGRQFINSDKIKPDHPQTIIKKTLLKEYQSKNFSCQEERDLFLEFTEKIVQNFHNINFNYLLKKFCKLPENYQSLKSQVKQIVQSENKANQQSCENLFNSLYDTEISYKQITNFLRQIIQNCVPNQLLGKKNFKVFLEKLYEFVQMKRFENQKVLDYICFMDVFDVEWFVDLKNQKFTQKRKYISDKRKILGDLIVFIINKIVIPVLRYNFYITEKHKEGSQIFYYRKPIWKLVSKLTIVKLEEENLEKVEEKL”, for which the “soluble on expression in E. coli” value is on record as “soluble”.

Regarding “SPNSMSALKAVFQYIDENQDRYVKKLAEWVAIQSVSAWPEKRGEIRRMMEVAAADVQRLGGSVELVDIGKQKLPDGSEIPLPPILLGKLGSDPQKKTVCIYGHLDVQPAALEDGWDSEPFTLVEREGKLYGRGSTDDKGPVAGWMNALEAYQKTGQEIPVNLRFCLEGMEESGSEGLDELIFAQKDKFFKDVDYVCISDNYWLGKNKPCITYGLRGICYFFIEVECSDKDLHSGVYGGSVHEAMTDLISLMGCLVDKKGKILIPGINDAVAPVTDEEHALYDHIDFDMEEFAKDVGAETLLHSCKKDILMHRWRYPSLSLHGIEGAFSGSGAKTVIPRKVVGKFSIRLVPDMIPEVVSEQVSSYLSKKFAELQSPNKFKVYMGHGGKPWVSDFNHPHYQAGRRALKTVFGVEPDLTREGGSIPVTLTFQEATGKNVMLLPVGSADDGAHSQNEKLNRLNYIEGTKMLAAYLYEVSQLKN”, the “soluble on expression in E. coli” value is listed as “soluble”.

Regarding “MARFSIEGKSLKLDAITTEDEKSVFAVLLEDDSVKEIVLSGNTIGTEAARWLSENIASKKDLEIAEFSDIFTGRVKDEIPEALRLLLQALLKCPKLHTVRLSDNAFGPTAQEPLIDFLSKHTPLEHLYLHNNGLGPQAGAKIARALQELAVNKKAKNAPPLRSIICGRNRLENGSMKEWAKTFQSHRLLHTVKMVQNGIRPEGIEHLLLEGLAYCQELKVLDLQDNTFTHLGSSALAIALKSWPNLRELGLNDCLLSARGAAAVVDAFSKLENIGLQTLRLQYNEIELDAVRTLKTVIDEKMPDLLFLELNGNRFSEEDDVVDEIREVFSTRGRGELDELDDMEELTDEEEEDEEEEAESQSPEPETSEEEKEDKELADELSKAHI”, the “soluble on expression in E. coli” value is “soluble”.

As for “MSLNMKTFKFFTALFATAILTACTLDMERPTNVQYIDKTDAIWQQHLQKIQKIQSYQAKGQIGYISPTERFSSRFEWQYQNPKSYTLKLYSLISKSTLWIQMHQSGMTISDNNGNQQSAANSKLLLQEIIGMDVPLEHLAYWLKGQPAMNADYQVGTNHLLGAFTYHVDGSQWTADYLTYHSNNSMPENILLKNDSTKQTLKIRVDEWIYEGGSHHHHHH”, the “soluble on expression in E. coli” value is “soluble”.

In the case of “MSCINLPTVLPGSPSKTRGQIQVILGPMFSGKSTELMRRVRRFQIAQYKCLVIKYAKDTRYSSSFCTHDRNTMEALPACLLRDVAQEALGVAVIGIDEGQFFPDIMEFCEAMANAGKTVIVAALDGTFQRKPFGAILNLVPLAESVVKLTAVCMECFREAAYTKRLGTEKEVEVIGGADKYHSVCRLCYFKKASGQPAGPDNKENCPVPGKPGEAVAARKLFAPQQILQCSPAN”, the “soluble on expression in E. coli” value is listed as “soluble”.

For “MTDGSMDIDAMLEGGLEMAKNDRSQSRQRSPARSNRSRSRSKDRKSSSRRSRSRSRDRRGDRGDRRRSRSRSKDRRTTRRRSPSRERRRSRSRDRGAPRRRSRTRSRDRRRSPPRRRDRRTPPRRSPGRRSPPRSRLPGPERRDVMPFNPRHSPPKNAKLELTAEERDQRTLLIMQIARDTRPRDLEEFFSAVGAVRDVRIITDSRTGRSKGICYVEFWDEESVPLGLALNGQRLMGAPLQIQRTCAERNRAANSSVASTLGFVAPGNKGPTHVLVENLHPKIDEKMIRDIFESFGRIEKIDLEVDSNRENRGFATITFRNADDAQKSCEQLNNFELAGRCIRLSIKQESQAPAVKKEEASIHQRSLDDVGDRQGFSLGAGGRQQLMAKLAQGTGSGMELTASAQMAAQHAGHSQIPSIATQCFLLSNMFDPSKETEPAWDHDIREDVIEQCLAHGGALHVFVDKGSEQGNVYVKCPSIVIAHQAVSALHGRWFSGKVITANYVPVNSYHDLFPDAVHARIVLTTRGAAPVVPIVPMVPVVPPQGIANGYGAYGMMAPAHGAPPPPPPQQQGQYGGYGRY”, the “soluble on expression in E. coli” value is “not soluble”.

“MAEDKTKPSELDQGKYDADDNVKIICLGDSAVGKSKLMERFLMDGFQPQQLSTYALTLYKHTATVDGRTILVDFWDTAGQERFQSMHASYYHKAHACIMVFDVQRKVTYRNLSTWYTELREFRPEIPCIVVANKIDADINVTQKSFNFAKKFSLPLYFVSAADGTNVVKLFNDAIRLAVSYKQNSQDFMDEIFQELENFSLEQEEEDVPDQEQSSSIETPSEEAASPHS”: the “soluble on expression in E. coli” value is “soluble”.
